The record followed here is patent US20210130454A1 (BLUEFIN BIOMEDICINE, published 2021).

Assay [1] addresses T1, human SEZ6L2 on cells (293-SEZ6L2, HEK 293 cells transfected with human SEZ6L2, and SEZ6L2-expressing tumor … (human, UniProt Q6UXD5 28-910)).
T1 construct: Tumor cell lines express the endogenous protein; also called hSEZ6L2
Put plainly: flow cytometry on live 293-SEZ6L2 cells, primary antibody 1 ug/ml, Alexa Fluor 488 anti-human IgG secondary [continued), panel F]. Background: Flow cytometry measures light scatter and fluorescence of single cells or particles in a stream.

Assay [2] has as its target T2, human SEZ6 on cells (293-SEZ6) (human, UniProt Q53EL9 20-994).
T2 construct: whole, on cells; also called Seizure Protein 6 Homolog
T2 sequence (looked up): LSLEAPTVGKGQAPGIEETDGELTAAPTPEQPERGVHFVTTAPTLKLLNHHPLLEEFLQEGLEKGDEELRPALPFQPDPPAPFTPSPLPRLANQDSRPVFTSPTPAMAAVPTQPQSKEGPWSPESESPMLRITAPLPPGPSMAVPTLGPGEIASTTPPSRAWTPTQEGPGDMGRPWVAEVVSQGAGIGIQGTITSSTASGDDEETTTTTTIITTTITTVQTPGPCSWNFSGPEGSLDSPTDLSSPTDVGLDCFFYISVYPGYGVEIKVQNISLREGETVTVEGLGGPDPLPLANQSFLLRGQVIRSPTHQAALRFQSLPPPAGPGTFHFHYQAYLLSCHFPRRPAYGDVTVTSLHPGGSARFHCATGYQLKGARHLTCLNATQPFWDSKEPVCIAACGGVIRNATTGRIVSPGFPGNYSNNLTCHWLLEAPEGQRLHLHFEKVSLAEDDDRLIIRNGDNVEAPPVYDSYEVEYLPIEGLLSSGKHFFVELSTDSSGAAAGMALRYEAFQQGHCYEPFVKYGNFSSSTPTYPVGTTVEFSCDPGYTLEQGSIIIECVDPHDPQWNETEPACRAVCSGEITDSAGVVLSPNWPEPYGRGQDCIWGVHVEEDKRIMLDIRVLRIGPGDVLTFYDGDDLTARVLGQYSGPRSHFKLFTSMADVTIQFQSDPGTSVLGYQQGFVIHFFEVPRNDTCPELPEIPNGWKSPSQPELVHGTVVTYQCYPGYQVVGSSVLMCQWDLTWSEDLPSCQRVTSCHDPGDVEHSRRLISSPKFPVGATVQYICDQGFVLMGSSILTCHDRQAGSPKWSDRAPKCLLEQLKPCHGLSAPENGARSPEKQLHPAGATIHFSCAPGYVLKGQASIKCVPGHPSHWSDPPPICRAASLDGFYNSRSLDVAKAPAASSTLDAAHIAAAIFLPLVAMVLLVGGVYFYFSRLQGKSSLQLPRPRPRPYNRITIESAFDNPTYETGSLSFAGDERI
Put plainly: flow cytometry on live 293-SEZ6 cells, Alexa Fluor 488 anti-human IgG secondary [continued), panel F].

For assay [3], the target named is T3, human SEZ6L on cells (293-SEZ6L) (human, UniProt Q9BYH1 29-1024).
T3 construct: whole, on cells; also called Seizure 6-like Protein
T3 sequence (looked up): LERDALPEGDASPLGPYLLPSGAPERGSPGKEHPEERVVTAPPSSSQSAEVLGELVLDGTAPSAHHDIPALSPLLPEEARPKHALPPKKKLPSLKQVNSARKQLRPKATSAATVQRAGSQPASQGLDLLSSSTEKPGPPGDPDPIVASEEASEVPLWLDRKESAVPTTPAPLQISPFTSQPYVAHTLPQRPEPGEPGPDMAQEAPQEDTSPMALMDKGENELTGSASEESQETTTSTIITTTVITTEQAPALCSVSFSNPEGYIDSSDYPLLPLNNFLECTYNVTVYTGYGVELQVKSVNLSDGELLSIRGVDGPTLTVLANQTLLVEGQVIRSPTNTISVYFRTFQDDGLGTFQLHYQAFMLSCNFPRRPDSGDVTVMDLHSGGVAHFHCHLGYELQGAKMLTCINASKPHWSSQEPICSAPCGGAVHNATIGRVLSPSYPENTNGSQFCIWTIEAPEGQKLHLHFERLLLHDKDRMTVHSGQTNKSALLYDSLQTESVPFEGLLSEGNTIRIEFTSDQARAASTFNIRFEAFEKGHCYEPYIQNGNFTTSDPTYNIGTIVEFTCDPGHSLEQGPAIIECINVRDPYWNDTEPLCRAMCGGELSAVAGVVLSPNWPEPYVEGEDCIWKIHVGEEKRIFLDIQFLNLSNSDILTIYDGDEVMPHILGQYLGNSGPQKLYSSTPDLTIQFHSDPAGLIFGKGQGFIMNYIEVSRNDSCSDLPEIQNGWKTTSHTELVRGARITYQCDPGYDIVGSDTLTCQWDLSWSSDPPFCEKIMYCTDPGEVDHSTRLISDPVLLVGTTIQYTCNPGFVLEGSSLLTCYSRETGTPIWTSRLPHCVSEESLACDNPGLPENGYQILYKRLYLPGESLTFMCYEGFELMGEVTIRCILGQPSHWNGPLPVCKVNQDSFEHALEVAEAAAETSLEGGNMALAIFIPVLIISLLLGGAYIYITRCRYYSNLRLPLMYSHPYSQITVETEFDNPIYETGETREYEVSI
Nature of the assay: flow cytometry on live 293-SEZ6L cells, Alexa Fluor 488 anti-human IgG secondary [continued), panel F].

Assay [4] addresses T2, human SEZ6 on cells (293-SEZ6). Put plainly: flow cytometry on live 293-SEZ6 cells, Alexa Fluor 488 anti-human IgG secondary [continued), panel H].
Assay [5] concerns the target T3, human SEZ6L on cells (293-SEZ6L). Nature of the assay: flow cytometry on live 293-SEZ6L cells, Alexa Fluor 488 anti-human IgG secondary [continued), panel H].
The target in assay [6] is T1, human SEZ6L2 on cells (293-SEZ6L2, HEK …). Put plainly: flow cytometry on live 293-SEZ6L2 cells, primary antibody 1 ug/ml, Alexa Fluor 488 anti-human IgG secondary [continued), panel H].
The target is the same in assay [7]. Put plainly: immunofluorescence and flow cytometry on HEK 293 cells transfected with human SEZ6L2 against untransfected cells.
Assay [8] concerns the target T4, recombinant human SEZ6L2 (extracellular portion of human SEZ6L2 fused to six C-terminal histidine-tag repeats) (human, UniProt Q6UXD5 28-844).
T4 construct: also called SEZ6L2-his; recombinant SEZ6L2
Put plainly: BLI (ForteBio Octet Red96), antibody on Protein A biosensors, recombinant target protein in solution.

Assay [9] has as its target T5, recombinant cynomolgus monkey SEZ6L2 (cynomolgus monkey, UniProt G7Q0V6 28-844).
T5 construct: The construct is not described; also called cynomolgus monkey SEZL2
Described as above.

In assay [10] the target is T3, human SEZ6L on cells (293-SEZ6L). Nature of the assay: flow cytometry on live 293-SEZ6L cells, Alexa Fluor 488 anti-human IgG secondary [panel A].
For assay [11], the target named is T2, human SEZ6 on cells (293-SEZ6). Put plainly: flow cytometry on live 293-SEZ6 cells, Alexa Fluor 488 anti-human IgG secondary [panel A].
For assay [12], the target named is T3, human SEZ6L on cells (293-SEZ6L). Nature of the assay: flow cytometry on live 293-SEZ6L cells, Alexa Fluor 488 anti-human IgG secondary [continued), panel G].
In assay [13] the target is T1, human SEZ6L2 on cells (293-SEZ6L2, HEK …). Put plainly: flow cytometry on live 293-SEZ6L2 cells, primary antibody 1 ug/ml, Alexa Fluor 488 anti-human IgG secondary [continued), panel G].
Assay [14] addresses T2, human SEZ6 on cells (293-SEZ6). Nature of the assay: flow cytometry on live 293-SEZ6 cells, Alexa Fluor 488 anti-human IgG secondary [continued), panel G].
Assay [15] has the same target. Nature of the assay: flow cytometry on live 293-SEZ6 cells, Alexa Fluor 488 anti-human IgG secondary [continued), panel I].
Assay [16] has as its target T3, human SEZ6L on cells (293-SEZ6L). Put plainly: flow cytometry on live 293-SEZ6L cells, Alexa Fluor 488 anti-human IgG secondary [continued), panel I].

T1 sequence (Q6UXD5 28-910): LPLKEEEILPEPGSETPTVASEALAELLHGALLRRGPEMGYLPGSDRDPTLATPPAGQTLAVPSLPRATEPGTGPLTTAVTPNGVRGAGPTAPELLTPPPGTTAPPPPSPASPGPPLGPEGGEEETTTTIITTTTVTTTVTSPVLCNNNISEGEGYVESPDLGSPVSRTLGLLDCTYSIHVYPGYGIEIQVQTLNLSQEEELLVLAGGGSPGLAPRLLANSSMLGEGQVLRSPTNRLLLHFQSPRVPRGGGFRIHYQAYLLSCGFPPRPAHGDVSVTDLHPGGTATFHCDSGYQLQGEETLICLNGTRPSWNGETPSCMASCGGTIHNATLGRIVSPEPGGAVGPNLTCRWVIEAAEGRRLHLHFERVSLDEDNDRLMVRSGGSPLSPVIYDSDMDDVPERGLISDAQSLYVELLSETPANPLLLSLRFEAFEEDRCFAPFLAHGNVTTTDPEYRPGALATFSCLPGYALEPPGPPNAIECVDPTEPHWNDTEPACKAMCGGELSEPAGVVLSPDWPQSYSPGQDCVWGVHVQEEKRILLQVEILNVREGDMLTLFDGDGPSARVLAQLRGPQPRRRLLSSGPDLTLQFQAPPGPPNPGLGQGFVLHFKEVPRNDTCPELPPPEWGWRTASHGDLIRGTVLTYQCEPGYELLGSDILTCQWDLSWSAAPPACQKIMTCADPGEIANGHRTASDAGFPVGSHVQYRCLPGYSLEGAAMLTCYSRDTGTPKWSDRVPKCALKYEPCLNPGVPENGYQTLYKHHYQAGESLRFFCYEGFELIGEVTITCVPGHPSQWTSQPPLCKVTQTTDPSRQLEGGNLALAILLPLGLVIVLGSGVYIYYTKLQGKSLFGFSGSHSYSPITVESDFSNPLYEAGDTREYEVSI
T4 sequence (Q6UXD5 other isoform, or with tags, fused parts or gaps): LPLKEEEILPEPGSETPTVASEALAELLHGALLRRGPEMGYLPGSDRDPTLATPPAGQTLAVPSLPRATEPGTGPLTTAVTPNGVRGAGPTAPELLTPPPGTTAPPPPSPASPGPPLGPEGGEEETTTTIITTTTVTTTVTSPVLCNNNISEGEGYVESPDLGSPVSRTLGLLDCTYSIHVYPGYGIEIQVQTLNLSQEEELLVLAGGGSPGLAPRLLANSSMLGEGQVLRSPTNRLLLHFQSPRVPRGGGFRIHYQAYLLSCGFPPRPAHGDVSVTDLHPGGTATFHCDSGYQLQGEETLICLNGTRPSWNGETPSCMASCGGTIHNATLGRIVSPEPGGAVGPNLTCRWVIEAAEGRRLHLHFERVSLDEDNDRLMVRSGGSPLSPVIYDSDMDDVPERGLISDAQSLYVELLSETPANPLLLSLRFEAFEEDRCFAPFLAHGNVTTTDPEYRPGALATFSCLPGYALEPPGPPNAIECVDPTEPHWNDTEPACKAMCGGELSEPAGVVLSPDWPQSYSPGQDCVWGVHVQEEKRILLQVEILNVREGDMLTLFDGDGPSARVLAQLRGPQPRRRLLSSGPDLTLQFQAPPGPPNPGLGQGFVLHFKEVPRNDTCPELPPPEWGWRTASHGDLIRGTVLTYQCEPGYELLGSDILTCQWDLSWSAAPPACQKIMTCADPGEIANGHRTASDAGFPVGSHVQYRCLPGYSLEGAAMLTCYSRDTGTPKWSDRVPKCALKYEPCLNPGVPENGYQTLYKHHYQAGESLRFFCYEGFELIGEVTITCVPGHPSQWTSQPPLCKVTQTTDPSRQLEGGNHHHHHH

B1: human anti-SEZ6L2 antibody 3B1 (antibody, V domains shown)
VH: QVQLVESGGGVVQPGRSLRLTCVVSGFAFSSYGMHWVRQAPGKGLEWVAVIWYDGSNKYYADSVKGRFTISRDNSKNTLYLQMNSLRAEDTAVYYCASLDYYGSGSRFDPWGQGTLVTVSS
VL: not shown
notes: Fully human antibody from H2L2 mice
Consider B1, for which the binding result in assay [1] was “binds”; in assay [2], “no binding (tested: 1 ug/ml)”; in [3], “no binding (tested: 1 ug/ml)”.

B2: human anti-SEZ6L2 antibody 3B6 (antibody, V domains shown)
VH: QVQLVQSGAEVKKPGASVKVSCKASGYTFTAYYMHWVRQAPGQGLEWMGWINPNSGGTNYAQKFQGRVTMTRDTSIDTAYLDLSRLRSDDTAVYYCAKDSGYDWYFDIWGRGTLVTVSS
VL: EIVLTQSPATLSLSPGERATLSCRASQNISSYLAWYQQKPGQAPRLLIYDASNRATGIPARFSGSGSGTDFTLTISSLEPEDFAVFYCQQHSNWPPLTFGGGTKVEIKR
notes: as for B1
For the molecule B2, the binding result in [4] is “no binding (tested: 1 ug/ml)”; in [5], “no binding (tested: 1 ug/ml)”; in [6] it was “binds”.

B3: murine anti-SEZ6L2 antibody mu2E4 (antibody, V domains shown)
VH: EVKLVESGGVLVKPGGSLKLSCAASGFTFSKYAMSWVRQTPEKRLEWVATISSGGSYTYYPDSVKGRFTISRDNARNTLYLQMSSLRSEDTAIYYCTREGGYDEGYAMDYWGQGTTLTVS
VL: DVVMTQTPLSLPVSLGDQASISCRSSQSLVHSYGNTYLHWYLQKPGQSPKLLIYKVSNRFSGVPDRFSGSGSGTDFTLKISRVEAEDLGVYFCSQSTHFRTFGGGTKLEIK
notes: Mouse hybridoma antibody
As to B3, in assay [7], the binding result is given as “binds”.

B4: murine anti-SEZ6L2 antibody mu3E2 (antibody, V domains shown)
VH: EVLLVESGGRLVQPKGSLKLSCAASGFSFNTITMNWVRQAPGKGLEWVARIRSKSNNYATYYADAVKDRFTISRDDSQSMLYLQMNNLKTEDTAMYFCVRGIFSGYVYAMDYWGQGTTLTVSS
VL: DVVMTQSPLSLPVSVGDQASISCRSSQSIVHSNGNTYLEWYLQKPGQSPKVLIYKVSNRFSGVPDRFSGSGSGTDFTLKISRVEAEDLGVYYCFQGSHVPYTFGGGTKLEIK
notes: Mouse hybridoma antibody
For B4, in assay [7], the binding result is recorded as “binds”.

B5: human anti-SEZ6L2 antibody 1A1 (antibody, V domains shown)
VH: QVQLVQSGAEVKKPGASVKVSCKASGYTFTGYYMFWVRQAPGQGLEWLGWINPNSGGTDYAQKFQGRVTMTRDTSISTAYMELSRLRSDDTAVYYCARDSGYDWFFDYWGQGTLVTVSS
VL: not shown
notes: Fully human antibody from H2L2 mice, expressed recombinantly; it was captured on Protein A and detected with anti-human IgG
Usually Kd stands for a measure of binding affinity in units of concentration. For the molecule B5, the Kd in assay [8] and in [9] was 1 nM in each case. The binding result in [10] and in assay [11] was “no binding (tested: 1 ug/ml)” throughout.

B6: human anti-SEZ6L2 antibody 3B3 (antibody, V domains shown)
VH: EVQLVESGGGLVQPGGSLRLSCAASGFTFSSYWMSWVRQAPGKGLEWVANIKQDGSEKYYVDSVKGRFTISRDNAKNSLYLQMNSLRAEDTAVYYCARGGGSYAFDYWGQGTLVTVSS
VL: not shown
notes: as for B1
For the molecule B6, the binding result in assay [12] is given as “no binding (tested: 1 ug/ml)”; in [13], “binds”; in [14], “no binding (tested: 1 ug/ml)”.

B7: humanized anti-SEZ6L2 antibody 2E4 (antibody, human IgG1, V domains shown)
VH: EVKLVESGGVLVKPGGSLRLSCAASGFTFSKYAMSWVRQAPGKGLEWVSTISSGGSYTYYPDSVKGRFTISRDNARNSLYLQMNSLRAEDTAIYYCTREGGYDEGYAMDYWGQGTTVTVSS
VL: DIVMTQSPDSLAVSLGERATINCRSSQSLVHSYGNTYLHWYQQKPGQPPKLLIYKVSNRFSGVPDRFSGSGSGTDFTLTISSLQAEDVAVYFCSQSTHFRTFGGGTKVEIKR
notes: also called 2E4:4D2
Consider B7, for which the Kd in [8] came to 7 nM; in assay [9], 12 nM. The binding result in [15] and in assay [16] was “no binding (tested: 1 ug/ml)” each time.
